For experiment [1], the target named is T1, GTP-loaded Ras1.G17V (1-172) (Schizosaccharomyces pombe (fission …, UniProt P08647 1-172, G17V)).
T1 construct: stopped with 20.5 mM MgCl2) just before the pull-down; Cloned in the vector pLEICS1; also called Ras1.G17V^GTP; source: E. coli BL21 Rosetta, purified (Ni Sepharose 6 Fast Flow), loaded with GTP
T1 sequence (looked up): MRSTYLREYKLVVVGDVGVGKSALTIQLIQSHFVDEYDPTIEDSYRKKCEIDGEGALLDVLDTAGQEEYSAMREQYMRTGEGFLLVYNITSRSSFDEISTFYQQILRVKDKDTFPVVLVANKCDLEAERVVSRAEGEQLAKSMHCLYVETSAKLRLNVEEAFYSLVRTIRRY
As to the kind of experiment: pull-down; GST-Byr2 (65-180) or GST-Scd1 (760-872) on glutathione sepharose 4B beads, GTP-loaded Ras1.G17V (1-172) added; buffer A (20 mM Tris-Cl pH 7.5, 100 mM NaCl, 5 mM MgCl2, 1 mM beta-mercaptoethanol), 4 C, 30 min; bound fraction on SDS-PAGE, InstantBlue stain. Particulars: both partners purified.

Experiment [2] has as its target T1, GTP-loaded Ras1.G17V (1-172). The experiment in a line: pull-down; competition: GST-Byr2 (65-180) on glutathione beads, GTP-loaded Ras1.G17V (1-172) with or without the Scd1 (760-872) fragment; buffer A, 4 C, 30 min; Ras1.G17V band on the stained gel quantified with Fiji. As to conditions: both partners purified.

B1: GST-Scd1 (760-872) (domain or fragment, UniProt P40995 760-872, looked up)
chain: SSSTSTSLSVRNTTNVKIRLRLHEVSLVLVVAHDITFDELLAKVEHKIKLCGILKQAVPFRVRLKYVDEDGDFITITSDEDVLMAFETCTFELMDPVHNKGMDTVSLHVVVYF
notes: Cloned in the vector pLEICS4; also called GST-Scd1-PB1; Scd1-PB1; source: E. coli BL21 Rosetta, purified (glutathione sepharose 4B), kept on the beads; not shown: GST, N-terminal, kept
Consider B1, for which, in experiment [1], the binding result was “binds”.

B2: Scd1 (760-872) fragment (domain or fragment, UniProt P40995 760-872, looked up)
chain: SSSTSTSLSVRNTTNVKIRLRLHEVSLVLVVAHDITFDELLAKVEHKIKLCGILKQAVPFRVRLKYVDEDGDFITITSDEDVLMAFETCTFELMDPVHNKGMDTVSLHVVVYF
notes: legend and methods say the fragment freed of GST; also called Scd1-PB1; source: E. coli BL21 Rosetta; not shown: GST, N-terminal, cleaved
B2: in experiment [2], the binding result is “binds”.

B3: GST-Byr2 (65-180) (domain or fragment, UniProt P28829 65-180, looked up)
chain: REFPRPCILRFIACNGQTRAVQSRGDYQKTLAIALKKFSLEDASKFIVCVSQSSRIKLITEEEFKQICFNSSSPERDRLIIVPKEKPCPSFEDLRRSWEIELAQPAALSSQSSLSP
notes: Cloned in the vector pLEICS4; also called GST-Byr2-RBD; Byr2-RBD; source: E. coli BL21 Rosetta, purified (glutathione sepharose 4B), kept on the beads; not shown: GST, N-terminal, kept
Turning to B3, the binding result in experiment [1] is given as “binds”.

The values above are taken from article PMC13108886, “Constitutively active RAS prolongs Cdc42 signalling, while MAPK signalling is attenuated during fission yeast mating” (PLOS Genetics, 2026).
